We go through 6 molecules from PMC7384550 (Journal of molecular biology, 2019).

T1: SinR (Bacillus subtilis, UniProt P06533 1-111)
T1 sequence: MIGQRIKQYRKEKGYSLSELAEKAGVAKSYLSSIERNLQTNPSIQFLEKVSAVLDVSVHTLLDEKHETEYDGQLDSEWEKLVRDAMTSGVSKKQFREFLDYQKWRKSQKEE

B1: 22-mer inverted repeat, 6-FAM (dsDNA)
DNA 1: TTTGTTCTCTAAAGAGAACTTA
DNA 2: TAAGTTCTCTTTAGAGAACAAA
B2: SinR (full-length, tetrameric transcriptional repressor) (natural protein, Bacillus subtilis, UniProt P06533 1-111, looked up)
chain: T1 sequence
B3: 90 bp tapA-sipW-tasA promoter bending substrate (dsDNA)
DNA 1: GAAAGTTCTCTAAAGAGAACATTATAAATAATAAGGGAAGTGCAGTAAATTAGAGGAAAATCATGTATTGTTCTCTAAAGAGAACTTAG
DNA 2: CTAAGTTCTCTTTAGAGAACAATATCATGATTTTCCTCTAATTTACTGCACTTCCCTTATTATTTATAATGTTCTCTTTAGAGAACTTTC
modifications: internal fluorescein-dT (T22 of strand 1); internal BHQ-1-dT (T25 of strand 2), both written as T
B4: SinI (antagonist of SinR) (natural protein, Bacillus subtilis, UniProt P23308 1-57, looked up)
chain: MKNAKQEHFELDQEWVELMVEAKEANISPEEIRKYLLLNKKSAHPGPAARSHTVNPF
B5: SinI^quad (SinI K34E, L38Y, K41W, S42R) (natural protein, Bacillus subtilis, UniProt P23308 1-57, looked up)
chain: B4 chain with K34E, L38Y, K41W, S42R

Changes are numbered by the printed parent chain. Names and notes keep the numbering of the source.

The target of data set [1] is T1, SinR. Briefly: fluorescence anisotropy/polarization. (Fluorescence polarisation rises when a labelled molecule tumbles more slowly, as on binding a larger partner.)
The data set “SEC” deals with the molecule itself. Briefly: SEC.
In data set [2] the target is T1, SinR. Briefly: fluorescence quenching DNA-bending assay.
In data set [3] the target is B2. Briefly: AUC.
The data set “AUC” deals with the molecule itself. Briefly: AUC.

What is called Kd is the concentration at which binding is half-saturated. Higher therefore signals a looser complex. B1 returned a Kd in the data set with SinR [1] of 249 ± 38 nM.
A word on the stoichiometry N: it is a count of units in the complex or per binding partner. As to B2, the “stoichiometry N” value in the data set “SEC” came out at 4.
Consider B3, for which the binding result with SinR [2] is “binds”.
In the case of EYDGQLDSEWEKLVRDAMTSGVSKKQFREFLDYQKWRKSQKEE (domain or fragment, Bacillus subtilis, UniProt P06533 69-111, looked up) [SinRC, the C-terminal oligomerization domain of SinR (residues 69-111)], the “stoichiometry N” value in “SEC” turned out to be 4.
For B4, the binding result in data set [3] was “binds”. In addition, in the data set “SEC”, the “stoichiometry N” value turned out to be 2.
For B5, the “stoichiometry N” value in the data set “AUC” is 2. Further, the binding result in data set [3] is “binds”.
